Results published in patent US10034836B2, “Formulations of guanylate cyclase C agonists and methods of use” (SYNERGY PHARMACEUTICALS, INC., priority 2008, dated 2018).
Where no end group is shown, it is not given here. [ ]: non-standard residue; d: D form.

Legend:
[1] = test system: T84 cells; experiment: cGMP synthesis in T84 cells, GCC agonist alone or in combination with PDE inhibitors; assay type: cell-based, human; settings: 100 μM, 30 min
Procedure: FIG. 9: Stimulation of cGMP synthesis in T84 cells by SP-304 (0.1 μM) either alone or in combination with the phosphodiesterase (PDE) inhibitors Sulindac Sulfone (100 μM) or Zaprinast (100 μM). T84 cells were exposed to various treatments, as indicated, for 30 min and the cell lysates were used to determine the intracellular cGMP levels. Data points shown are the average of duplicate measurements.
FIG. 10: Stimulation of cGMP synthesis in T84 cells by SP-304 (0.1 or 1.0 μM) either alone or in combination with incremental concentrations of phosphodiesterase (PDE) inhibitors, as indicated. T84 cells were exposed to various treatments, as indicated, for 30 min and the cell lysates were used to determine the intracellular cGMP levels. Data points shown are the average of duplicate measurements. […]
SS and ZAP in combination with SP-304 or SP-333 were evaluated to see if these PDE inhibitors had any synergistic effects on intracellular accumulation of cGMP (FIG. 9-12). […]
For the results shown in FIG. 9, cyclic GMP synthesis in T84 cells was assessed essentially as described in Shailubhai et al., Cancer Research 60, 5151-5157 (2000). […] Following centrifugation and the addition of NaOH (0.1 N) to neutralize the pH, intracellular cGMP levels were determined in lysates using a cGMP ELISA kit (Cat. No. 581021; Cayman Chemical, Ann Arbor, Mich.). […]

[2] = Stability in simulated intestinal fluid (SIF), HPLC analysis; assay type: in vitro ADME; settings: SIF
Procedure: FIG. 2B: HPLC chromatographic spectra of SP-304 samples after incubation with: (A) heat-inactivated SIF for 300 minutes, or (B) SIF for 120 minutes. The arrows show the elution position of SP-304.
FIGS. 7D-1-7D-2: HPLC chromatograms of SP-304 incubated for 0 min in SIF (FIG. 7D-1) and 60 min in SIF (FIG. 7D-2), respectively. The arrows indicate the elution positions of the parent SP-304 peptides. […] These new peptide peaks represent degradation products of SP-304.
FIGS. 7E-1-7-E2: HPLC chromatograms of SP-332 incubated for 0 min in SIF (FIG. 7E-1) and 120 min in SIF (FIG. 7E-2), respectively. The arrows indicate the elution positions of the parent SP-332 peptides.
FIGS. 7F-1-7F-2: HPLC chromatograms of SP-333 incubated for 0 min in SIF (FIG. 7F-1) and 120 min in SIF (FIG. 7F-2), respectively. The arrows indicate the elution positions of the parent SP-333 peptides.
FIGS. 7G-1-7G-5: Incubation of SP-333 with SIF for 2, 6, 12 and 24 hrs. Effect of SIF digestion on the activity of SP-333 in T84 stimulation assay was determined (FIG. 7G-1) and samples were also analyzed by HPLC (FIGS. 7G2-5). The elution positions of the parent peptide and its metabolites are indicated by arrows.
The physical stability of SP-304 peptide exposed to SIF was evaluated by HPLC using the method described for SGF digestion. […]

[3] = target: T1, intestinal GC-C receptor (Homo sapiens, UniProt P25092); experiment: Cyclic GMP stimulation assay in T84 cells; assay type: cell-based; settings: 30 min exposure (FIG. 5)
T1 construct: confluent monolayers of T-84 cells in 24-well plates; host or cells: T84 human colon carcinoma cells
Source text: FIG. 4: Biological activity of truncated peptides of 16-mer SP-304, as measured by stimulation of cGMP synthesis in T84 cells. SP-338 15-mer peptide is indentical to SP-304 except that it lacks Leu at the C-terminus. SP-327, SP-329 and SP-331 lack Leu at their C-termini relative to their corresponding parents, SP-326, SP-328 and SP-330, respectively. Data points shown are the average of duplicate measurements.
FIG. 5: Stimulation of cGMP synthesis in T84 cells by SP-304 and similar analogs. T84 cells were exposed to test peptides for 30 min and cell lysates were then used to determine intracellular cGMP levels. Data points shown are the average of triplicate measurements±SD.
FIG. 6: Stimulation of cGMP synthesis in T84 cells by SP-339 (linaclotide) and other linaclotide analogs. T84 cells were exposed to test peptides for 30 min and cell lysates were then used to determine intracellular cGMP levels. Data points shown are the average of triplicate measurements±SD.
FIG. 8: Stimulation of cGMP synthesis in T84 cells by the peggylated analogs of SP-333. T84 cells were exposed to the indicated peptides for 30 min and cell lysates were used to determine intracellular cGMP levels. Data points shown are the average of triplicate measurements±SD.
After the 30 min incubation, the medium was aspirated and the reaction was terminated by the addition of 3% perchloric acid. Following centrifugation and the addition of NaOH (0.1 N) to neutralize the pH, intracellular cGMP levels were determined in lysates using a cGMP ELISA kit (Cat. No. 581021; Cayman Chemical, Ann Arbor, Mich.). Peptide incubations were run in duplicate, and samples taken from each incubation were run as duplicates in the ELISA test.
The ability of the GCC agonist peptide to bind to and activate the intestinal GC-C receptor was tested using T84 human colon carcinoma cell line. Human T84 colon carcinoma cells were obtained from the American Type Culture Collection. Cells were grown in a 1:1 mixture of Ham's F-12 medium and Dulbecco's modified Eagle's medium (DMEM) supplemented with 10% fetal bovine serum, 100 U penicillin/ml, and 100 μg/ml streptomycin. The cells were fed fresh medium every third day and split at a confluence of approximately 80%.
Biological activity of the GCC agonist peptides was assayed as previously reported (Shailubhai, et al., Cancer Research 60, 5151-5157 (2000)). Briefly, the confluent monolayers of T-84 cells in 24-well plates were washed twice with 250 μl of DMEM containing 50 mM HEPES (pH 7.4), pre-incubated at 37° C. for 10 min with 250 μl of DMEM containing 50 mM HEPES (pH 7.4) and 1 mM isobutylmethylxanthine (IBMX), followed by incubation with GCC agonist peptides (0.1 nM to 10 µM) for 30 min. The medium was aspirated, and the reaction was terminated by the addition of 3% perchloric acid. Following centrifugation, and neutralization with 0.1 N NaOH, the supernatant was used directly for measurements of cGMP using an ELISA kit (Caymen Chemical, Ann Arbor, Mich.).
An additional strategy to render peptides more resistant towards digestion by digestive proteases is to peggylate them at the N- and C-terminus. The peptide SP-333 was peggylated with the aminoethyloxy-ethyloxy-acetic acid (Aeea) group at the C-terminus (SP-347) or at the N-terminus (SP-350) or at both termini (SP-343). Cyclic GMP synthesis in T84 cells was measured by the method as described above.

[4] = Stability in simulated intestinal fluid (SIF), biological activity by cGMP synthesis in T84 cells; assay type: in vitro ADME; settings: SIF, two hour incubation (FIG. 7A)
Procedure: FIG. 2A: Biological activity of SP-304 incubated for varying lengths of time in simulated intestinal fluid (SIF). SP-304 samples were incubated for 0, 30, 60, 90, 150, and 300 min, respectively, and then tested for their ability to stimulate cGMP synthesis in T84 cells. The cGMP stimulation activity in the sample at 0 min of incubation time in SIF was taken as 100% biological activity. The activities of the other SP-304 incubation samples were calculated as the percentage of activity relative to that of the 0 min sample. Data points shown are the average of triplicate measurements±SD.
(§1) FIG. 7A: Biological activity of SP-333 incubated for varying lengths of time in simulated intestinal fluid (SIF). SP-333 samples incubated for 0, 5, 10, 30, 60, and 120 min, respectively, were tested for their ability to stimulate cGMP synthesis in T84 cells. The control sample marked as C120 was produced by incubating SP-333 with heat inactivated SIF for 120 min. Samples from the incubations were removed and heated at 95° C. for 5 min to inactivate digestive enzymes and then used to stimulate cyclic GMP synthesis in T84 cells. The cGMP stimulation activity in the sample at 0 min of incubation time in SIF was taken as 100% biological activity. The activities of the other SP-304 incubation samples were calculated as the percentage of activity relative to that of the 0 min sample. Data points shown are the average of triplicate measurements±SD.
as §1, with “FIG. 7B:” for “FIG. 7A:”, “of SP-332” for “of SP-333”, “incubating SP-332” for “incubating SP-333”
FIG. 7C: Biological activity of SP-304 incubated for varying lengths of time in simulated intestinal fluid (SIF). SP-304 samples incubated for 0, 10, and 60 min, respectively, were tested for their ability to stimulate cGMP synthesis in T84 cells. The control samples marked as C0 and C60 were produced by incubating SP-304 with heat inactivated SIF for 0 and 60 min, respectively. Samples from the incubations were removed and heated at 95° C. for 5 min to inactivate digestive enzymes and then used to stimulate cyclic GMP synthesis in T84 cells. The cGMP stimulation activity in the sample at 0 min of incubation time in SIF was taken as 100% biological activity. The activities of the other SP-304 incubation samples were calculated as the percentage of activity relative to that of the 0 min sample. […]
FIGS. 7G-1-7G-5: Incubation of SP-333 with SIF for 2, 6, 12 and 24 hrs. Effect of SIF digestion on the activity of SP-333 in T84 stimulation assay was determined (FIG. 7G-1) and samples were also analyzed by HPLC (FIGS. 7G2-5). […]
The stability of SP-304 was also evaluated after incubation with simulated intestinal fluid (SIF) by measuring its biological activity and by HPLC analyses (FIGS. 2A & 2B). […]

T1 sequence (P25092 24-1073): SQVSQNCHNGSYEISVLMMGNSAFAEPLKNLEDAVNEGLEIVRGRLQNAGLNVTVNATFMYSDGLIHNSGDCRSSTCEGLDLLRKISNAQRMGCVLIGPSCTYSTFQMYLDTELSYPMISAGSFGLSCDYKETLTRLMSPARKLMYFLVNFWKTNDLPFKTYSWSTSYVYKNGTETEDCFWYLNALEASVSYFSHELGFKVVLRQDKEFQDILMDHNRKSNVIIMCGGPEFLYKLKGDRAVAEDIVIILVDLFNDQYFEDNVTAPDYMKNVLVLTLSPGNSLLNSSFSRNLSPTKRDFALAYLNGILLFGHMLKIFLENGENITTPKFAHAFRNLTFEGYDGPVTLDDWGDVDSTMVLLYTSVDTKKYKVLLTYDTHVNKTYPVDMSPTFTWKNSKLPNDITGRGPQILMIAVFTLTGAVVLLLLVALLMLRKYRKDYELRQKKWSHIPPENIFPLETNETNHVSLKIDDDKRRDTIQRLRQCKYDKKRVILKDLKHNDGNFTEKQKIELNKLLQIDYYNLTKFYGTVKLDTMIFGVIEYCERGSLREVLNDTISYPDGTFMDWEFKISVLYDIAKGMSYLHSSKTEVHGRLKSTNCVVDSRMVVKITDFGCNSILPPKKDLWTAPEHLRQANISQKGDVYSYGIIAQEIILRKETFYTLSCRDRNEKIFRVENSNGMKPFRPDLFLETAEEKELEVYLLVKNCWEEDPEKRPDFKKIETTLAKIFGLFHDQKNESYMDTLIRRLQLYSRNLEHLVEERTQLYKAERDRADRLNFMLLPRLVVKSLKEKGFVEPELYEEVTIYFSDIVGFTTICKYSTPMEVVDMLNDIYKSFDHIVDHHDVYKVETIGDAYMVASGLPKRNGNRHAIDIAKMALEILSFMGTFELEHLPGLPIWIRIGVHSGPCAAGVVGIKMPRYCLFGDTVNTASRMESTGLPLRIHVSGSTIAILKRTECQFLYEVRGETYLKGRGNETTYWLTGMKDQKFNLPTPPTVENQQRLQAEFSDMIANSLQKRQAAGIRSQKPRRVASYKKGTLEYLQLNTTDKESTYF

Compound | intracellular accumulation of cGMP, PDE inhibitor alone [1] | HPLC analysis of parent peptide after incubation with SIF ([2]; 120 min) | degradation in SIF ([2]; up to 24 hours (FIG. 7G)) | ability to stimulate cGMP synthesis in T84 cells relative to SP-304 [3] | biological activity remaining after incubation in SIF [4] [%]
CC1=C(CC(=O)O)c2cc(F)ccc2/C1=C\c1ccc(S(C)(=O)=O)cc1 [Sulindac Sulfone] | did not enhance | – | – | – | –
dAsn^1-Asp^2-Glu^3-Cys^4-Glu^5-Leu^6-Cys^7-Val^8-Asn^9-Val^10-Ala^11-Cys^12-Thr^13-Gly^14-Cys^15-dLeu^16 ([dN]DECELCVNVACTGC[dL]; disulfide (positions not given here); also: two disulfides, pairing not given here) [SP-333] | – | remained virtually intact | very little degradation | comparable ability | ~100
